This is an account of results in PMC5683014 (Acta Crystallographica. Section D, Structural Biology, 2017).

What all share (assay): BLI; BLItz (ForteBio); biotinylated Fab loaded on streptavidin biosensors (rehydrated in PBS with 0.1% BSA); lysozymes passed on and off at a range of concentrations; global fits of kinetics (BlitzPro 1.2.1.3)
(In BLI a coated tip is dipped into the sample, and binding shifts an interference pattern.)

The target of one test is HyHEL10 Fab.
Test [1] addresses T1, Pekin duck egg lysozyme isoform II (Anas platyrhynchos, Pekin duck, …, UniProt P00705, strain).
T1 construct: Isoform II of C-type lysozyme of Pekin duck (Anas platyrhynchos), 129 positions; entry P00705 (Kondo DL-2) differs at residues 66 and 103; Second of three peaks eluted from CM resin; Observed intact mass 14460.98 Da; No crystal structure; also called DEL-II; DL-2 (Kondo); source: purified from Pekin duck egg white (CM ion exchange, gel filtration)
The following applies: both partners purified.

For test [2], the target named is T2, Pekin duck egg lysozyme isoform I (Anas platyrhynchos, Pekin duck, …, strain).
T2 construct: Allelic isoform I of C-type lysozyme of Pekin duck (Anas platyrhynchos), 129 positions; Asp66 and Asn103; First of three peaks eluted from CM resin; Observed intact mass 14391.88 Da; also called DEL-I; DL-1 (Kondo); source: purified from Pekin duck egg white (CM ion exchange, gel filtration)
T2 chain: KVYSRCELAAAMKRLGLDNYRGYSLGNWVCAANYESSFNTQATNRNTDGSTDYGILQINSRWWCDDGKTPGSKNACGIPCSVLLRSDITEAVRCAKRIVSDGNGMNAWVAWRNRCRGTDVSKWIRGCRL
The following applies: both partners purified.

Turning to “Pekin duck egg lysozyme isoform III (enzyme)”, the Kd – broadly, the constant that tells how readily two partners part at equilibrium – with HyHEL10 Fab was above 1000 nM.

B1: HyHEL10 Fab (Fab, V domains shown)
VH: DVQLQESGPSLVKPSQTLSLTCSVTGDSITSDYWSWIRKFPGNRLEYMGYVSYSGSTYYNPSLKSRISITRDTSKNQYYLDLNSVTTEDTATYYCANWDGDYWGQGTLVTVSA
VL: DIVLTQSPATLSVTPGNSVSLSCRASQSIGNNLHWYQQKSHESPRLLIKYASQSISGIPSRFSGSGSGTDFTLSINSVETEDFGMYFCQQSNSWPYTFGGGTKLEIK
notes: HyHEL10 Fab heavy chain; HyHEL10 kappa light chain; Cloned into pCEP4; also called HyHEL10 Fab arm; source: Expi293, transiently expressed, purified from supernatant (HisTrap FF Crude)
Take B1: the Kd came out at 34 nM in test [1] and 40 nM in test [2].
